Test results published in the supplement of paper PMC7125110.
± gives the standard error. For some assays here: This sample holds only a part of the variants without activity.

B1: glmS ribozyme (parent)
chain: AUAAAAGCGCCAGAACUACAGAAAUGUAGUUGACGAGGAGGAGGUUUAUCGAAUUUUCGGCGGAUGCCUCCAAA

Legend:
Conditions in all cases: with glucosamine-6-phosphate
glucosamine-6-phosphate [1] = variants of: B1; assay: kcat; higher = faster cleavage; RNA array
Summary of the method: (§1)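 Glucosamine-6-phosphate in HEPES/KCl/Mg(OAc)2 buffer, at 40 μM to 10 mM, was flowed over barcoded ribozyme variants transcribed in situ by E. coli RNA polymerase on sequenced MiSeq chips. Tracking was through a hybridised Cy3 probe at 37 °C. kobs, kcat and KM came from exponential decay fits and weighted Michaelis–Menten fits of normalised per-tile medians.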

glucosamine-6-phosphate [2] = variants of: B1; assay: KM; higher = weaker cofactor use; RNA array
Summary of the method: as §1

glucosamine-6-phosphate [3] = variants of: B1; assay: self-cleavage kobs at 40 uM GlcN6P; higher = faster cleavage; RNA array
Summary of the method: as §1

glucosamine-6-phosphate [4] = variants of: B1; assay: self-cleavage kobs at 160 uM GlcN6P; higher = faster cleavage; RNA array
Summary of the method: as §1

glucosamine-6-phosphate [5] = variants of: B1; assay: self-cleavage kobs at 640 uM GlcN6P; higher = faster cleavage; RNA array
Summary of the method: as §1

glucosamine-6-phosphate [6] = variants of: B1; assay: self-cleavage kobs at 2500 uM GlcN6P; higher = faster cleavage; RNA array
Summary of the method: as §1

glucosamine-6-phosphate [7] = variants of: B1; assay: self-cleavage kobs at 10000 uM GlcN6P; higher = faster cleavage; RNA array
Summary of the method: as §1

| Variant | kcat (glucosamine-6-phosphate [1]) [s⁻¹] | KM (glucosamine-6-phosphate [2]) [µM] | self-cleavage kobs at 40 uM GlcN6P (glucosamine-6-phosphate [3]) [s⁻¹] | self-cleavage kobs at 160 uM GlcN6P (glucosamine-6-phosphate [4]) [s⁻¹] | self-cleavage kobs at 640 uM GlcN6P (glucosamine-6-phosphate [5]) [s⁻¹] | self-cleavage kobs at 2500 uM GlcN6P (glucosamine-6-phosphate [6]) [s⁻¹] | self-cleavage kobs at 10000 uM GlcN6P (glucosamine-6-phosphate [7]) [s⁻¹] |
| --- | --- | --- | --- | --- | --- | --- | --- |
| A15U C71A | 0.000688 ± 4.8e-05 | 1050 ± 120 | 3.22e-05 ± 8.9e-06 | 8.62e-05 ± 8.8e-06 | 0.000278 ± 3.4e-05 | 0.000497 ± 6.4e-05 | 0.000605 ± 7e-05 |
| U46C C71U | 0.00342 ± 0.00056 | 1240 ± 290 | 0.000102 ± 1.5e-05 | 0.000375 ± 5.8e-05 | 0.00126 ± 0.00019 | 0.00309 ± 0.00044 | 0.00266 ± 0.00038 |
| U31A A42G | 0.0179 ± 0.0037 | 1430 ± 370 | 0.000495 ± 7.3e-05 | 0.00191 ± 0.00054 | – | 0.00902 ± 0.0026 | 0.0188 ± 0.0042 |
| U46G C58G | 2.68e-05 ± 1.4e-06 | 892 ± 260 | – | < 1e-05 | – | – | 2.44e-05 ± 1.2e-05 |
| G32C A33G | < 1e-05 | – | < 1e-05 | < 1e-05 | – | < 1e-05 | – |
| A33C U65A | 4.76e-05 ± 2.3e-06 | 617 ± 240 | – | – | – | – | 4.47e-05 ± 1.6e-05 |
| U47C A52G | 0.000596 ± 8.2e-05 | 3550 ± 750 | – | 3.5e-05 ± 1.7e-05 | 9.21e-05 ± 1.5e-05 | 0.000226 ± 4.3e-05 | 0.000465 ± 8.9e-05 |
| A36U G38A | < 1e-05 | – | – | – | – | – | – |
| U31C U47A U56C | 0.00113 ± 0.00024 | 5360 ± 1700 | – | – | 0.000111 ± 2.5e-05 | 0.000487 ± 0.00011 | 0.000707 ± 0.00012 |
| G51U G60C C68A | 2.85e-05 ± 8.6e-06 | – | – | – | – | – | – |
| A39U C58A | 0.000543 ± 0.00013 | – | – | – | – | 8.13e-05 ± 1.4e-05 | 0.000214 ± 2.7e-05 |
| G66U U69G | 3.26e-05 ± 1.2e-05 | – | – | – | 5.52e-05 ± 2.5e-05 | 4.9e-05 ± 2.2e-05 | – |
| C11A G44U G59U | 0.000238 ± 5.3e-06 | 1330 ± 77 | – | – | 7.85e-05 ± 2.2e-05 | 0.00015 ± 4.7e-05 | 0.000212 ± 4e-05 |
| C16U G37U G51C | < 1e-05 | – | < 1e-05 | < 1e-05 | < 1e-05 | – | – |
| G38A U49A C58U | 2.37e-05 ± 3.2e-06 | 862 ± 380 | – | – | – | – | – |
| A42G G66A U69A | 0.0145 ± 0.0037 | 1590 ± 490 | 0.000356 ± 0.0001 | – | – | – | 0.0125 ± 0.0052 |
| A6U U31G | 8.41e-05 ± 1e-05 | – | < 1e-05 | – | – | 7.42e-05 ± 1.9e-05 | 7.27e-05 ± 1.2e-05 |
| U55C C58A | 0.000437 ± 0.00015 | – | – | 4.03e-05 ± 1.3e-05 | 9.55e-05 ± 1.2e-05 | 0.000175 ± 2.3e-05 | 0.000455 ± 6.7e-05 |
| U30G A39C | 0.00157 ± 0.00013 | 2010 ± 270 | 3.28e-05 ± 5.7e-06 | 0.000114 ± 1.6e-05 | 0.000396 ± 3.6e-05 | 0.000787 ± 7.3e-05 | 0.00139 ± 0.00011 |

| Variant | kcat (glucosamine-6-phosphate [1]) [s⁻¹] | KM (glucosamine-6-phosphate [2]) [µM] | self-cleavage kobs at 40 uM GlcN6P (glucosamine-6-phosphate [3]) [s⁻¹] | self-cleavage kobs at 160 uM GlcN6P (glucosamine-6-phosphate [4]) [s⁻¹] | self-cleavage kobs at 640 uM GlcN6P (glucosamine-6-phosphate [5]) [s⁻¹] | self-cleavage kobs at 2500 uM GlcN6P (glucosamine-6-phosphate [6]) [s⁻¹] | self-cleavage kobs at 10000 uM GlcN6P (glucosamine-6-phosphate [7]) [s⁻¹] |
| --- | --- | --- | --- | --- | --- | --- | --- |
| G37A G59U C68G | < 1e-05 | – | – | – | – | – | – |
| G38A U54G | < 1e-05 | – | < 1e-05 | – | – | – | – |
| A15U G59U | < 1e-05 | – | < 1e-05 | < 1e-05 | – | – | – |
| U56C A64U | < 1e-05 | – | < 1e-05 | – | < 1e-05 | – | – |
| A39U G41A | 0.00029 ± 1.6e-05 | 651 ± 93 | – | 5.88e-05 ± 1.3e-05 | 0.00014 ± 1.5e-05 | 0.00025 ± 2.7e-05 | 0.000257 ± 3e-05 |
| U30A U46C | 0.000377 ± 6.9e-05 | 1730 ± 750 | – | – | 0.000117 ± 3.5e-05 | – | 0.000332 ± 7e-05 |
| A6U C70G | 3.01e-05 ± 9.6e-06 | – | – | – | 3.81e-05 ± 1.3e-05 | 5.38e-05 ± 1.1e-05 | 1.91e-05 ± 6.9e-06 |
| G13A U31A G32A C50G C67G | 4.8e-05 ± 1.5e-05 | – | – | – | 4.97e-05 ± 2.2e-05 | 5.25e-05 ± 1.8e-05 | – |
| A14U G66C | 0.000139 ± 1.3e-05 | 5220 ± 1100 | – | – | – | 4.36e-05 ± 8e-06 | 9.18e-05 ± 1e-05 |
| C67U U69G | 3.43e-05 ± 1.5e-05 | – | – | 4.85e-05 ± 1.1e-05 | – | 4.75e-05 ± 1.2e-05 | – |
| G29A G37U | < 1e-05 | – | – | – | – | – | – |
| A53C U65A C70A C71A | 1.25e-05 ± 4e-06 | – | – | – | – | – | – |
| G13U C68A | 1.31e-05 ± 2e-06 | – | – | – | – | – | – |
| A6G U30G | 0.000154 ± 1.6e-05 | 5370 ± 1400 | < 1e-05 | < 1e-05 | – | 5.13e-05 ± 1.9e-05 | 9.98e-05 ± 1.4e-05 |
| A39G U56A U57G G60U C67U C70U | 1.31e-05 ± 5.3e-06 | – | – | – | – | – | – |
| U54G A64U | 9.79e-05 ± 1.5e-05 | – | – | – | 1.94e-05 ± 7.4e-06 | 7.47e-05 ± 9.1e-06 | 8.01e-05 ± 8e-06 |
| A15G G43U | 4.47e-05 ± 6.5e-06 | – | – | < 1e-05 | – | 4.65e-05 ± 9.7e-06 | 4e-05 ± 5.6e-06 |
| U54G G59U | 3.86e-05 ± 1.5e-06 | 544 ± 170 | – | – | – | 3.03e-05 ± 9.3e-06 | 3.71e-05 ± 6.4e-06 |
| C11A C70U | 0.000155 ± 1e-05 | 210 ± 71 | 2.69e-05 ± 1e-05 | 6.69e-05 ± 1.4e-05 | 0.00011 ± 1.2e-05 | 0.000168 ± 1.4e-05 | 0.000145 ± 9.7e-06 |
